# Experimental data as given in paper PMC10063552.
# Experiments:
# Test in all cases: enzyme inhibition assay (cleavage of a chromogenic substrate, fit to Morrison's tight binding equation); MMP-2ACT (0.6 nM), MMP-9CAT (3 nM) or MMP-14CAT (1 nM) incubated with 0-25 nM N-TIMP2 variant in 50 mM HEPES, 10 mM CaCl2, 0.05% Brij-35, 1 mM DTNB, pH 7.5, 1 h at 37 °C; then 100 µM chromogenic substrate, absorbance at 412 nm at 37 °C; Ki from three independent experiments
# [1] = target: activated MMP-2 (MMP-2ACT) (human)
# [2] = target: human MMP-9 catalytic domain (MMP-9CAT) (human) (UniProt P14780)
# [3] = target: human MMP-14 catalytic domain (MMP-14CAT) (human) (UniProt P50281)
Substance,Ki [1] [nM],Ki [2] [nM],Ki [3] [nM]
N-TIMP2-S2DOPA (from UniProt P16035 27-153) (domain or fragment),3.14,0.623,14.6
N-TIMP2-A70HqAla (from UniProt P16035 27-153) (domain or fragment),16.7,1.93,27.2
N-TIMP2-S2HqAla (from UniProt P16035 27-153) (domain or fragment),97.7,70.4,97.7
N-TIMP2-A70DOPA (from UniProt P16035 27-153) (domain or fragment),0.785,0.452,10.6

# Other lines, results leading:
Ki [1] [nM],Ki [2] [nM],Ki [3] [nM],Substance
0.46,0.468,21.4,N-TIMP2-S69DOPA (from UniProt P16035 27-153) (domain or fragment)
0.413,0.543,4.72,N-TIMP2-Y36HqAla (from UniProt P16035 27-153) (domain or fragment)
0.606,0.449,11.5,N-TIMP2-S69HqAla (from UniProt P16035 27-153) (domain or fragment)
1,0.849,14.2,N-TIMP2-L100DOPA (from UniProt P16035 27-153) (domain or fragment)
